From PMC10246013 (bioRxiv, 2023)

Assays:
[1] = biological target: dynein-dynactin-BicDR1 complex assembled with wtDyn (wtDDR) (human | pig | mouse) (UniProt Q14204); test: three-color TIRF comigration with processive complexes
WT dynein-GFP (human) = WT dynein-GFP (human) (UniProt Q14204); test: real-time TIRF imaging of the initiation of motility
[2] = biological target: wild-type human dynein (wtDyn) (human) (UniProt Q14204); test: single-molecule colocalization
mass photometry = biological target: the molecule itself; test: mass photometry

Sequence of dynein-dynactin-BicDR1 complex assembled with wtDyn (wtDDR) (human | pig | mouse) (Q14204 whole entry, looked up, one chain of several): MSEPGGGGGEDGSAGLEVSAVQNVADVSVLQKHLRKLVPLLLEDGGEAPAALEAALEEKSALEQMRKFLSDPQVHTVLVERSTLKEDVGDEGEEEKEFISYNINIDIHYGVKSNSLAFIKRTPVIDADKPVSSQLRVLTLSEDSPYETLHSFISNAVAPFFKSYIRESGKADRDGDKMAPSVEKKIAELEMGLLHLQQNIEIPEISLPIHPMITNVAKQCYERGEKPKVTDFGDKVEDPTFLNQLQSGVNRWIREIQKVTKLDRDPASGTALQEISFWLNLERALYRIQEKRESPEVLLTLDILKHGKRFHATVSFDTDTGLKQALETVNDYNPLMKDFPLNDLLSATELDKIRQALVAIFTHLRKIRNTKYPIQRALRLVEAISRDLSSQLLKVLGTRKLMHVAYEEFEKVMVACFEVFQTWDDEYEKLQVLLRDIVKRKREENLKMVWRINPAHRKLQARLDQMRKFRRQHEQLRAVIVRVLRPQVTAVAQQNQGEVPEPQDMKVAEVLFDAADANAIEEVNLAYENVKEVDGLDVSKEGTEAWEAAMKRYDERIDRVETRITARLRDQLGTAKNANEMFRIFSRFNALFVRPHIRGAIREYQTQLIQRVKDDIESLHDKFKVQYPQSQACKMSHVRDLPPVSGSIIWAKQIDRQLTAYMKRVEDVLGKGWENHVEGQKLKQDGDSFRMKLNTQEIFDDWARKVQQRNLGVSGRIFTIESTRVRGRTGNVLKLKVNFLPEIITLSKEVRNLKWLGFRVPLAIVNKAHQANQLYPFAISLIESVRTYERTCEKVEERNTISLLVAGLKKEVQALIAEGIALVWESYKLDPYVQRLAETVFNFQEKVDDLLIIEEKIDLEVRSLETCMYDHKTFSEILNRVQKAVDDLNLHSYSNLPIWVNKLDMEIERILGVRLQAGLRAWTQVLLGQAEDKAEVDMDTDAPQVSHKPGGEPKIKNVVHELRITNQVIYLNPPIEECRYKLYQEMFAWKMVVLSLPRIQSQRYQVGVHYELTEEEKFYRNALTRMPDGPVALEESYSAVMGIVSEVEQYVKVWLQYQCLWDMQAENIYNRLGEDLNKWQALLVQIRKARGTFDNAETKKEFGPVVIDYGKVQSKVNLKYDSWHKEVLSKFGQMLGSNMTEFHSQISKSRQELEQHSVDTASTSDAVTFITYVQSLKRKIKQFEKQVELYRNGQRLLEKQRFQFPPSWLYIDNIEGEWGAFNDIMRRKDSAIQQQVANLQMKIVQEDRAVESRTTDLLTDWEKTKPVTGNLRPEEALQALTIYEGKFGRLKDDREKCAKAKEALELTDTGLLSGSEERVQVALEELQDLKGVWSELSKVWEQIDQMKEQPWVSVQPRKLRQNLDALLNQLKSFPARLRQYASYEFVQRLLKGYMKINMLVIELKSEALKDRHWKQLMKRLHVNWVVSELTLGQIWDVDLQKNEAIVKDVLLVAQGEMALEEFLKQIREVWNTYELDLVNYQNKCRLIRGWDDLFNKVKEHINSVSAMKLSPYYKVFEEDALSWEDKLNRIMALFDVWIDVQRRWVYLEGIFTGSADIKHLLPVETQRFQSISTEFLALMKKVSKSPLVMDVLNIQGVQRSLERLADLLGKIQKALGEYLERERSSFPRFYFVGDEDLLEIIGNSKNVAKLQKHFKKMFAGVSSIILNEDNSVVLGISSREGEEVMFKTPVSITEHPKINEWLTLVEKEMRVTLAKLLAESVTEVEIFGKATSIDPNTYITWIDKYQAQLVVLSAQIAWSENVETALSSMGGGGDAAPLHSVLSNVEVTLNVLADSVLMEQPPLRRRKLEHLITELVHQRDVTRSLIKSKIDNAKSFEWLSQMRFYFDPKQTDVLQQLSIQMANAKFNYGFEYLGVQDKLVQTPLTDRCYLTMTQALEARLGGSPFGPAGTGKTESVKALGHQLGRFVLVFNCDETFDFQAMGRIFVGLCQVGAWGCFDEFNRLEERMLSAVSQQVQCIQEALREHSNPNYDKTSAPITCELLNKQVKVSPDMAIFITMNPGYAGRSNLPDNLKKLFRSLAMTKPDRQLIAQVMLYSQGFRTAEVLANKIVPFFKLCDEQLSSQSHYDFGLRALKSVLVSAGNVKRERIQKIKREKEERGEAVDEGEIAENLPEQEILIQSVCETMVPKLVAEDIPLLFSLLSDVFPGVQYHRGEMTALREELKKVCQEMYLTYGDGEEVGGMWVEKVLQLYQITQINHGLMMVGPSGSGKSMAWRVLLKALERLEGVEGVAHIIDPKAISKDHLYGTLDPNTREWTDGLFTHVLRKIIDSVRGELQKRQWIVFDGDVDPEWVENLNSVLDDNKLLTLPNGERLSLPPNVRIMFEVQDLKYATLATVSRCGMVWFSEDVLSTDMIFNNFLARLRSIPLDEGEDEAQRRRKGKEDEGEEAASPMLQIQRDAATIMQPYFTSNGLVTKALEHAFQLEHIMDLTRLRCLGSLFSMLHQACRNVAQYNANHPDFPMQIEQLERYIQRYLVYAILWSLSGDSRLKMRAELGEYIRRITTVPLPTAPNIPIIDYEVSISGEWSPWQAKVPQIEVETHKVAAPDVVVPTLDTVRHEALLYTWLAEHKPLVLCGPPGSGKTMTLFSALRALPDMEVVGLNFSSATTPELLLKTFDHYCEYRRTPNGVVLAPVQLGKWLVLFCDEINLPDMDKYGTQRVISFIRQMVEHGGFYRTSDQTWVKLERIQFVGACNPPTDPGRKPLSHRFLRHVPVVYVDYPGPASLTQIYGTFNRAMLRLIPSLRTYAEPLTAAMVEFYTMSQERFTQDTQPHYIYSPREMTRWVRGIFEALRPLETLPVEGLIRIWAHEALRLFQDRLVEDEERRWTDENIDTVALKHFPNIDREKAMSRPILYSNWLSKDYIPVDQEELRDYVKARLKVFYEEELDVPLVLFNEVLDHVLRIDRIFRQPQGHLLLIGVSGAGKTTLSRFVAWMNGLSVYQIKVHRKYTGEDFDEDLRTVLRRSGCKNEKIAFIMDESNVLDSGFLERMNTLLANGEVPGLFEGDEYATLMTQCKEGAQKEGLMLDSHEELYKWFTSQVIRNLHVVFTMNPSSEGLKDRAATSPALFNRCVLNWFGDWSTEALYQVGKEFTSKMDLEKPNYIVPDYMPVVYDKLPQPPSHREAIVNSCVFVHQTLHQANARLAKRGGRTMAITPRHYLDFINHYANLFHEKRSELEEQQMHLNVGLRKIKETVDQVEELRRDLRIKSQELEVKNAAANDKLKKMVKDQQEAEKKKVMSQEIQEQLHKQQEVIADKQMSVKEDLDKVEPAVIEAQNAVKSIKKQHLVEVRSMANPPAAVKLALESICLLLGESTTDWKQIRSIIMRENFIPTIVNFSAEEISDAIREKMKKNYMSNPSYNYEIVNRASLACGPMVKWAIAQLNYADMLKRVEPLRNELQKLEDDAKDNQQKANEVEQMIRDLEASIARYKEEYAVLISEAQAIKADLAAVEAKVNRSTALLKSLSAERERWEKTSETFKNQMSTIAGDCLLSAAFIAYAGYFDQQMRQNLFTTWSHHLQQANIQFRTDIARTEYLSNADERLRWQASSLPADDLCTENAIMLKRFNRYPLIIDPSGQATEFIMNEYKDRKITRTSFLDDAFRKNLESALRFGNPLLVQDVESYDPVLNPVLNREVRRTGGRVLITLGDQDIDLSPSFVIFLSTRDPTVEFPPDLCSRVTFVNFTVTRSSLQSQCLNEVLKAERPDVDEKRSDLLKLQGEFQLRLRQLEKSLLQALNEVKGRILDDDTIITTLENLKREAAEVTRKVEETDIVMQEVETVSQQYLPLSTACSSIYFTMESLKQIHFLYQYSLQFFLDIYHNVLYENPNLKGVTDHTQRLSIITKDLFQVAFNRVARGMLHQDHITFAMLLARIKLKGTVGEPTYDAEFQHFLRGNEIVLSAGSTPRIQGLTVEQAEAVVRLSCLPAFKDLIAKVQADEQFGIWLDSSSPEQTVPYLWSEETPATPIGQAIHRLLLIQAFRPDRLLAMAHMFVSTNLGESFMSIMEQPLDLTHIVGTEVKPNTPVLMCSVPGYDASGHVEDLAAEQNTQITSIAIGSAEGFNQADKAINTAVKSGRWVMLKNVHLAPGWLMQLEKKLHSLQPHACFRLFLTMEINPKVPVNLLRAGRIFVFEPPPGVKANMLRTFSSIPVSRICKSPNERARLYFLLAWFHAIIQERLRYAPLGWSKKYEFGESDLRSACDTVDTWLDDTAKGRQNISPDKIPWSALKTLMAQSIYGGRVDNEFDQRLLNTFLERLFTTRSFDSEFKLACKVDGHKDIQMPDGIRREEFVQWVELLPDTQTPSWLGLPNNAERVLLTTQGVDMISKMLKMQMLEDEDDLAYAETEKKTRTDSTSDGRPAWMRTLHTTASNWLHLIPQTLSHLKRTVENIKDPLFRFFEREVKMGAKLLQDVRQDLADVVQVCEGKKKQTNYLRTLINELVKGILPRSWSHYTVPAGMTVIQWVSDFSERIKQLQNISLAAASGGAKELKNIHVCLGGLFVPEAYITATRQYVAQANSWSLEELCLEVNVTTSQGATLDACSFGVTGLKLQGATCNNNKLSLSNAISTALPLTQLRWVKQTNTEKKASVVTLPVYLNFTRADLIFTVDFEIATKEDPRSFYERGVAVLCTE

human Lis1 (full-length) (from UniProt P43034 1-410) (natural protein)
percent of DDR complexes co-migrating with Lis1 [1]: 70%

pig brain dynactin (from UniProt A0A287B8J2 1-1281) (complex)
percent of dynein-colocalized Nde1 immediately released, with Lis1 (WT dynein-GFP (human)): 50%
percent reduction of Nde1 colocalization to dynein [2]: 37%

B1: human Nde1 (full-length) (natural protein)
chain: MEDSGKTFSSEEEEANYWKDLAMTYKQRAENTQEELREFQEGSREYEAELETQLQQIETRNRDLLSENNRLRMELETIKEKFEVQHSEGYRQISALEDDLAQTKAIKDQLQKYIRELEQANDDLERAKRATIMSLEDFEQRLNQAIERNAFLESELDEKENLLESVQRLKDEARDLRQELAVQQKQEKPRTPMPSSVEAERTDTAVQATGSVPSTPIAHRGPSSSLNTPGSFRRGLDDSTGGTPLTPAARISALNIVGDLLRKVGALESKLASCRNLVYDQSPNRTGGPASGRSSKNRDGGERRPSSTSVPLGDKGLDTSCRWLSKSTTRSSSSC
modifications: LD655 or LD555 dye in the fluorescence assays
stoichiometry N (mass photometry): 2

B2: Nde1^1–190 (N-terminus of human Nde1) (domain or fragment)
chain: MEDSGKTFSSEEEEANYWKDLAMTYKQRAENTQEELREFQEGSREYEAELETQLQQIETRNRDLLSENNRLRMELETIKEKFEVQHSEGYRQISALEDDLAQTKAIKDQLQKYIRELEQANDDLERAKRATIMSLEDFEQRLNQAIERNAFLESELDEKENLLESVQRLKDEARDLRQELAVQQKQEKPR
modifications: LD555 dye in the size exclusion experiment
stoichiometry N (mass photometry): 2
